Measurements reported in patent US6818657B1, “Bioprecursors of a retinoic derivative and pharmaceutical and/or cosmetic compositions” (Pierre Fabre Dermo-Cosmetique, priority 1999, dated 2004).

Substrate: CC1=C(/C=C/C(C)=C/C=C/C(C)=C/C(=O)Oc2ccc(O[C@@H]3OC(CO)[C@@H](O)C(O)C3O)cc2)C(C)(C)CCC1
Assay: Michaelis constants (Km) and Vm of recombinant β-glucocerebrosidase for pseudosubstrates
Assay type: biochemical
Conditions: other: phthalate buffer pH 5.6 (0.025 M), taurocholate 5 mM, purified β-glucocerebrosidase, 30 minutes incubation, HPLC assay
Method: After confirming that β-glucocerebrosidase is expressed in the keratinocytes, we produced a recombinant enzyme in the baculovirus system. A histidine tail was added to the COOH end of the protein to allow it to be purified by affinity column chromatography.
Thus, we were able to determine the Michaelis constants (Km) and the Vm values of the recombinant β-glucocerebrosidase in particular for the retinoic acid-arbutin glucoconjugate. The kinetics measurements are carried out in a phthalate buffer at pH 5.6 (0.025 M) containing taurocholate (5 mM), purified β-glucocerebrosidase and the test conjugate at various concentrations. The incubation lasts 30 minutes and the amount of hydroquinone-retinoic acid conjugate released is assayed by HPLC. The table below gives the results obtained. […] As regards their rates of hydrolysis, these are lower and thus allow effects to be obtained over time.

B1: recombinant β-glucocerebrosidase (Homo sapiens) (protein)
chain: ARPCIPKSFGYSSVVCVCNATYCDSFDPPTFPALGTFSRYESTRSGRRMELSMGPIQANHTGTGLLLTLQPEQKFQKVKGFGGAMTDAAALNILALSPPAQNLLLKSYFSEEGIGYNIIRVPMASCDFSIRTYTYADTPDDFQLHNFSLPEEDTKLKIPLIHRALQLAQRPVSLLASPWTSPTWLKTNGAVNGKGSLKGQPGDIYHQTWARYFVKFLDAYAEHKLQFWAVTAENEPSAGLLSGYPFQCLGFTPEHQRDFIARDLGPTLANSTHHNVRLLMLDDQRLLLPHWAKVVLTDPEAAKYVHGIAVHWYLDFLAPAKATLGETHRLFPNTMLFASEACVGSKFWEQSVRLGSWDRGMQYSHSIITNLLYHVVGWTDWNLALNPEGGPNWVRNFVDSPIIVDITKDTFYKQPMFYHLGHFSKFIPEGSQRVGLVASQKNDLDAVALMHPDGSAVVVVLNRSSKDVPLTIKDPAVGFLETISPGYSIHTYLWRRQ
notes: histidine tail (His tag) (C); made in house
- Km: 5 ± 1.2 µM
- Vmax: 235 ± 19 nmol/h/mg
